Source: patent CN115607664A (GENOR BIOPHARMA CO LTD, dated 2023)

Target: T1, PD-1 (UniProt Q15116 25-288, limits assumed)
T1 construct: whole, on cells; also called Jurkat/PD-1细胞表面的PD-1
Assay: Jurkat/PD-1 + CHO/PD-L1 NFAT-luciferase reporter blocking assay

T1 sequence (Q15116 25-288 limits assumed): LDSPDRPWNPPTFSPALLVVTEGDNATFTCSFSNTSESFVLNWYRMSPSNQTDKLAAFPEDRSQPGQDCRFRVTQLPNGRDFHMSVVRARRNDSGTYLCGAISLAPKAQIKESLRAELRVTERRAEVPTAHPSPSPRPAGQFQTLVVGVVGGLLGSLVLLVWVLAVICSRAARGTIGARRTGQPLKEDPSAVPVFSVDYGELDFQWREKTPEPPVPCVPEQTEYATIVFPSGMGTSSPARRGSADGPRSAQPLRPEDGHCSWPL

- binding result: binds
B1: G-Ab1 (antibody, human IgG4 S228P, kappa, V domains shown)
VH: QIQLVQSGSELKKPGASVKVSCKASGYTFTNFGMNWVRQAPGQGLKWMGWISGYTREPTYAADFKGRFVISLDTSVSTAYLQISSLKAEDTAVYYCARDVFDYWGQGTLVTVSS
VL: DIVLTQSPASLAVSPGQRATITCRASESVDNYGYSFMNWFQQKPGQPPKLLIYRASNLESGVPARFSGSGSRTDFTLTINPVEADDTANYYCQQSNADPTFGQGTKLEIKR
notes: An IgG4 isotype control was used alongside it; also called 抗PD-1抗体; G-Ab1抗体
